How the values were obtained:
[1] = molecular target: T1, recombinant biotinylated CD71 extracellular domain (Sino Biologics) with an N-terminal 6His tag (human, UniProt P02786 89-760, biotinylated (sites not given)); assay: screening ELISA
T1 construct: extracellular domain; also called hCD71; huCD71

[2] = molecular target: T1, recombinant biotinylated CD71 …; assay: screening ELISA, ratio

T1 sequence (P02786 other isoform, or with tags, fused parts or gaps): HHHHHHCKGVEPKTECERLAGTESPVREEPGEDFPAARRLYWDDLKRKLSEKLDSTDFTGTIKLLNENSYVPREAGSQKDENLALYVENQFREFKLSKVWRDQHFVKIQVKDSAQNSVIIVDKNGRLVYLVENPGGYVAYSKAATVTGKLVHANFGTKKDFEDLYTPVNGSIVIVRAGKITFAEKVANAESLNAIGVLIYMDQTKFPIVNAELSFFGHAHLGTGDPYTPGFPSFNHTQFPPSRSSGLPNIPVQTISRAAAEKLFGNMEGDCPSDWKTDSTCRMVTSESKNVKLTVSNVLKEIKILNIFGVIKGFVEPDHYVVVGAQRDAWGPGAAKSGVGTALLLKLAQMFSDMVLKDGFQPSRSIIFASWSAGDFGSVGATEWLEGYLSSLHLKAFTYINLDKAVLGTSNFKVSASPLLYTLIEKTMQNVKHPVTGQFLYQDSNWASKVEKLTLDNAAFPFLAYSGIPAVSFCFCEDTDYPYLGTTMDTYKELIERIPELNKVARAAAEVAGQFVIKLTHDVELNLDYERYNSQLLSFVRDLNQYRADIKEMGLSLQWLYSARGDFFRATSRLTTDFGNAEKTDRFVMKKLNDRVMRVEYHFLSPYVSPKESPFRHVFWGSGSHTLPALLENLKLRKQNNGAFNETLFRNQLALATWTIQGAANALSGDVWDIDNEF

hCD71 [1]	hCD71:HSA [2]	Binder
3.03e+06	1440	SEQ ID NO 139 (designed binder, FN3 domain) MLPAPKNLVVSRVTEDSARLSWTAPDAAFDSFDISYWESGKYGEAIVLTVPGSESSYDLTGLKPGTEYLVDIFGVKGGYPSEPLSAIFTT
3.72e+06	1960	SEQ ID NO 171 (designed binder, FN3 domain) MLPAPKNLVVSRVTEDSARLSWTAPDAAFDSFAIRYLEWWDVGEAIVLTVPGSERSYDLTGLKPGTEYLVEIKGVKGGKFSYPLSAIFTT
957000	73	SEQ ID NO 153 (designed binder, FN3 domain) MLPAPKNLVVSRVTEDSARLSWTAPDAALDSFRIAYTEYFVGGEAIVLTVPGSERSYDLTGLKPGTEYGVGIYGVKGGAGSSPLSAIFTT
3.41e+06	1000	SEQ ID NO 142 (designed binder, FN3 domain) MLPAPKNLVVSRVTKDSARLSWTAPDAAFDSFHIAYEEATTYGEAIFLRVPGSERSYDLTGLKPGTEYEVKIHGVKGGADSKPLVAPFTT
4.18e+06	2610	SEQ ID NO 140 (designed binder, FN3 domain) MLPAPKNLVVSRVTEDSARLSWTAPDAAFDSFWISYEESDTEGEAIYLRVPGSERSYDLTGLKPGTEYNVTIQGVKGGFPSMPLSAIFTT
4.31e+06	1160	SEQ ID NO 172 (designed binder, FN3 domain) MLPAPKNLVVSRVTEDSARLSWTAPDAAFDSFPIEYDEWWALGEAITLIVPASERSYDLTGLKPGTEYVVKIHGVKGGQRSYPLIAFFTT
1.84e+06	71	SEQ ID NO 155 (designed binder, FN3 domain) MLPAPKNLVVSRVTEDSARLSWTAPDAAFDSFPITYRERSQYGEAIVLTVPGSERSYDLTGLKPGTEYVVPIEGVKGGRGSKPLSAIFTT

Further lines, the binder ahead of its results:

Binder	hCD71 [1]	hCD71:HSA [2]
SEQ ID NO 129 (designed binder, FN3 domain) MLPAPKNLVVSRVTEDSARLSWTAPDAAFDSFDIEYYEAVGAGEAIVLTVPGSERSYDLTGLKPGTEYTVGIYGVKGGWLSKPLSVIFTT	2.31e+06	1540
SEQ ID NO 157 (designed binder, FN3 domain) MLPAPKNLVVSRVTEDSARLSWTAPDAAFDSFAIEYYEYVGNGEAIVLTVPGSERSYDLTGLKPGTEYQVGIYGVKGGYYSRPLSAIFTT	2.66e+06	1080
SEQ ID NO 130 (designed binder, FN3 domain) MLPAPKNLVVSRVTEDSARLSWTAPDAAFDSFHIPYVEAEVPGEAIQLHVPGSERSYDLTGLKPGTEYYVEIWGVKGGFYSPPLIAEFTT	1.45e+06	239
SEQ ID NO 161 (designed binder, FN3 domain) MLPAPKNLVVSRVTEDSARLSWTAPDAAFDSFTIRYWEELPTGEAIVLTVPGSERSYDLTGLKPGTEYTVEIFGVKGGYLSRPLSAISTT	1.21e+06	240
SEQ ID NO 143 (designed binder, FN3 domain) MLPAPKNLVVSRVTEDSARLSWTAPDAAFDSFHIAYEEADSEGEAIYLRVPGSERSYDLTGLKPGTEYSVNIQGVKGGIVSFPLHAEFTT	3.94e+06	426
SEQ ID NO 148 (designed binder, FN3 domain) MLPAPKNLVVSRVTEDSARLSWTAPDAAFDSFHIEYEEQYSTGEAIYLRVPGSERSYDLTGLKPGTEYHVDIEGVKGGRRSFPLNAFFTT	3.98e+06	1990
SEQ ID NO 173 (designed binder, FN3 domain) MLPAPKNLVVSRVTEDSARLSWTAPDAAFDSFTIHYRELYVQAIVLTVPGSERSYDLTGLKPGTEYLVMIPGVKGGPTSVPLSAIFTT	979000	47
